Results taken from article PMC3749969.

Columns and labels:
[1] = target: Merkel cell polyomavirus major capsid protein VP1 (native virions, isolate R17b) (Merkel cell polyomavirus (MCV), isolate R17b); experiment: co-sedimentation; purified native virions and high-VP2 pseudovirions; SDS-PAGE, SYPRO Ruby stain, densitometry against BSA standards; apparent ratio
[2] = target: Merkel cell polyomavirus major capsid protein VP1 (pseudovirions, codon-modified gene) (Merkel cell polyomavirus (MCV)); experiment: as above

Substance	stoichiometry N (VP2 per 5 VP1) [1]	stoichiometry N (VP2 per 5 VP1) [2]
Merkel cell polyomavirus minor capsid protein VP2 (native virions, isolate R17b) (natural protein)	2	–
Merkel cell polyomavirus minor capsid protein VP2 (pseudovirions, codon-modified gene) (natural protein)	–	1.4
